The subject of one test is human neutrophils. In words: Calcium flux in human neutrophils. In kind it is cell-based. Conditions: for calcium flux: human neutrophils. The procedure: (§1) Ca^2+ mobilization responses were performed using the intracellular ratiometric fluorescent dye, lndo-1. Cells were loaded with Indo-1/AM (3 μM; Molecular Probes, Eugene, Oreg.) in culture medium (45 min, 20° C., 10^7 cells/ml). After dye loading, cells were washed once with 10 ml PBS) and resuspended at 10^6 cell/ml in HBSS containing 1% FBS. Cytosolic [Ca^2+] release was determined using excitation at 350 nm using a Photon Technology International fluorimeter (excitation at 350 nm, ratioed dual emission at 400 and 490 nm).
The human recombinant chemokines, leukotactin, MlP-1α, three known CKβ8 variants CKβ8(1-99), CKβ8(25-99), CKβ8-1(1-116) and a novel NH2-terminal truncated form of CKβ8-1, CKβ8-1 (25-116) were obtained from R&D Systems (Minneapolis, Minn.). Human monocytes were generated from buffy coats (Stanford Blood Center, Palo Alto, Calif.) following a standard protocol. Briefly, PBMC were isolated by standard density gradient centrifugation (Ficoll-Paque-Plus, Pharmacia). Monocytes were purified using CD14 Microbeads (Miltenyi, Auburn, Calif.) magnetic positive selection. Human neutrophils were isolated from fresh peripheral blood from healthy individuals by gradient centrifugation on Ficoll-Hypaque (Hyclone, Calif.).
Human monocytes were either generated from buffy coats (Stanford Blood Center, Palo Also, Calif.) or from fresh blood of healthy individuals following a standard protocol. Briefly, PBMC were isolated by a Ficoll-Paque gradient centrifugation (Ficoll-Paque-Plus, Pharmacia). Monocytes were purified by CD14 Microbeads (Miltenyi) magnetic positive selection. Human neutrophils were isolated from fresh blood by dextran sedimentation and gradient centrifugation Ficoll-Paque gradient centrifugation. All cells were washed and resuspended (1×10^7/ml) in RPMI medium with 10% FBS.
Ca^2+ mobilization responses were performed using an intracellular ratiometric fluorescent dye, Indo-1. Cells were loaded with Indo-1/AM (3 μM; Molecular Probes (Eugene, Oreg.)) in culture medium (45 min, 20° C., 10^7 cells/mi). After dye loading, cells were washed once (10 ml PBS) and resuspended at 10^6 cell/ml in HBSS containing 1% FBS. Cytosolic [Ca^2+] release was determined using excitation at 350 nm using a Photon Technology International fluorimeter (excitation at 350 nm, ratioed dual emission at 400 and 490 nm).

The target in another test is T1, CCR1 (Homo sapiens, UniProt P32246).
T1 construct: full length cDNA encoding CCR1 was cloned by the polymerase chain reaction (PCR) from genomic DNA isolated from human peripheral blood cells; expressed in transfected cells; pcDNA3.1 vector)
T1 sequence (P32246 1-355): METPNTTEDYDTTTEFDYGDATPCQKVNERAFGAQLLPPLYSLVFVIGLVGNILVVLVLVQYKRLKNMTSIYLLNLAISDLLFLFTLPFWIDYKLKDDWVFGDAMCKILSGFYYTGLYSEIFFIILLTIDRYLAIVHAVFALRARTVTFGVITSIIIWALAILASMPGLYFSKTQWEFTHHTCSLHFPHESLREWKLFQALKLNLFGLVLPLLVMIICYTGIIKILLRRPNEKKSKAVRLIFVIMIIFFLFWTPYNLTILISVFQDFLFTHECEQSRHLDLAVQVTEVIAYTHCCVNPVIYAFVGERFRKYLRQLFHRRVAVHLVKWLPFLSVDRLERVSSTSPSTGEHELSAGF
The experiment in a line: Intracellular calcium flux in HEK293-CCR1 transfectants. In kind it is cell-based. Conditions: 100 nM; for maximal receptor stimulation compared with leukotactin: same concentration of leukotactin; for calcium flux: HEK293-CCR1 transfectants. As for the experimental part:
The human recombinant chemokines, leukotactin, three known CKβ8 variants CKβ8(1-99), CKβ8(25-99), CKβ8-1(1-116) and a novel NH2-terminal truncated form of CKβ8-1, CKβ8-1 (25-116) were obtained from R&D Systems (Minneapolis, Minn.). CKβ8-1(25-116) was compared with the other three variants for the ability to elicit an intracellular calcium mobilization in stable human CCR1 transfected […] cells. Human HEK293-CCR1 cells were prepared using Fugena 6 (Roche, Ind.) following the manufacturer's protocol. The HEK-293 cell lines were maintained in DMEM with 10% FBS supplemented with 800 μg/ml G-418.
Stable expression of human chemokine receptor CCR1 in HEK293 cell was obtained as follows: full length cDNA encoding CCR1 was cloned by the polymerase chain reaction (PCR) from genomic DNA isolated from human peripheral blood cells. The PCR product was cloned into pcDNA3.1 (Invitrogen, Carlsbad, Calif.) using standard molecular cloning procedures and completely sequenced to confirm identity.
Two micrograms of the CCR1/pcDNA3.1 construct were used to transfect the HEK293 cells as follows. FuGENE:DNA complex was prepared by mixing 6.0 μl FuGENE 6 reagent (Roche Molecular Biochemicals, Calif.) and 2 μg CCR1/pcDNA3.1 in 100 ul of serum-free medium (Hyclone, Colo.). After incubating for 30 minutes at room temperature, the complex was added to a 60 mm culture plate containing 0.5-1×10^6 cells in 10 ml DMEM medium supplemented with 10% FBS (Hyclone, Colo.). After mixing, the cells were returned to the incubator to culture at 37° C. for two days. At 48 hours post-transfection, Genetinin (G418) (Mediatech, Herndon, Va.) was added at a final concentration of 800 ug/ml. The cells were then plated in 96-well plates at a concentration of 20,000 cells/well. After 2-3 weeks under G418 selection, stable geneticin-resistant CCR1 expressing cells were assessed for their ability to mobilize calcium in response to MIP-1α at a concentration of 1-500 nM.
as §1
With HEKCCR1-293 transfectants, CKβ8-1(25-116) and the other CKβ8 variants induced a rapid calcium flux at 100 nM.

Entries after “also recorded” stand apart in the source; their conditions may differ. Ends that are not written are not given here.

On to MLWRRKIGPQMTLSHAAY [SEQ ID NO: 6], for which, in the test with human neutrophils (Example 8), the calcium flux result is “robust calcium flux”.
With MLWRRKIGPQMTLSHAAG [SEQ ID NO: 1], the calcium flux entry in the test with human neutrophils (Example 8) is “robust calcium flux”.

B1: CKβ8-1(25-116): novel NH2-terminal truncated form of CKβ8-1, SEQ ID NO: 16, human recombinant chemokine (protein, listed as Homo sapiens)
chain: MLWRRKIGPQMTLSHAAGFHATSADCCISYTPRSIPCSLLESYFETNSECSKPGVIFLTKKGRRFCANPSDKQVQVCMRMLKLDTRIKTRKN
Turning to B1, the “maximal receptor stimulation compared with leukotactin” value with CCR1 is “equivalent to those obtained with the same concentration of the CCR1 agonist, leukotactin”. Besides, the calcium flux entry with CCR1 is “high calcium response”; in the test with human neutrophils (100 nM) it was “induced an unique calcium release”; with human neutrophils (Example 8), “robust calcium flux”. Moreover, the “magnitude of calcium release compared with leukotactin” value in the test with human neutrophils (neutrophils, same amount of leukotactin) is listed as “much higher than observed for the same amount of leukotactin stimulation”.

B2: CKβ8-1(1-116): alternatively spliced form of CKβ8, 116 amino acids, human recombinant chemokine (protein, listed as Homo sapiens)
chain: RVTKDAETEFMMSKLPLENPVLLDMLWRRKIGPQMTLSHAAGFHATSADCCISYTPRSIPCSLLESYFETNSECSKPGVIFLTKKGRRFCANPSDKQVQVCMRMLKLDTRIKTRKN
Regarding B2, the calcium flux result is “lower” in the test with CCR1 and “neither MlP-1α nor CKβ8(1-99), CKβ8(25-99) or CKβ8(1-116) induced a calcium flux” with human neutrophils (100 nM).

B3: CKβ8(25-99): known truncated CKβ8 variant, human recombinant chemokine from R&D Systems (protein, listed as Homo sapiens)
chain: RFHATSADCCISYTPRSIPCSLLESYFETNSECSKPGVIFLTKKGRRFCANPSDKQVQVCMRMLKLDTRIKTRKN
For B3, in the test with CCR1, the “maximal receptor stimulation compared with leukotactin” value is recorded as “equivalent to those obtained with the same concentration of the CCR1 agonist, leukotactin” and the calcium flux result was “high calcium response; also recorded: lower”. Besides, the calcium flux entry in the test with human neutrophils (100 nM) is “neither MlP-1α nor CKβ8(1-99), CKβ8(25-99) or CKβ8(1-116) induced a calcium flux”.
